pKd: −log10 of the molar value.

Common to all, as to assay: filter binding
Holding throughout (conditions): Filter binding: 10 mM HEPES, 3 mM MgCl2, 1 mM DTT, 5% glycerol, 100 mM KCl, 0.05 mg/ml tRNA, 5 uM BSA, 30 C 15 min; UV crosslinking: 10 mM HEPES pH 7.9, 3 mM …

Series [1] has as its system PTBP3 AUG11 isoform del1-103 (human), O95758-5.
Series [2] concerns T1, PTBP3 AUG4 isoform del1-31 (human), O95758-5.
T1 sequence: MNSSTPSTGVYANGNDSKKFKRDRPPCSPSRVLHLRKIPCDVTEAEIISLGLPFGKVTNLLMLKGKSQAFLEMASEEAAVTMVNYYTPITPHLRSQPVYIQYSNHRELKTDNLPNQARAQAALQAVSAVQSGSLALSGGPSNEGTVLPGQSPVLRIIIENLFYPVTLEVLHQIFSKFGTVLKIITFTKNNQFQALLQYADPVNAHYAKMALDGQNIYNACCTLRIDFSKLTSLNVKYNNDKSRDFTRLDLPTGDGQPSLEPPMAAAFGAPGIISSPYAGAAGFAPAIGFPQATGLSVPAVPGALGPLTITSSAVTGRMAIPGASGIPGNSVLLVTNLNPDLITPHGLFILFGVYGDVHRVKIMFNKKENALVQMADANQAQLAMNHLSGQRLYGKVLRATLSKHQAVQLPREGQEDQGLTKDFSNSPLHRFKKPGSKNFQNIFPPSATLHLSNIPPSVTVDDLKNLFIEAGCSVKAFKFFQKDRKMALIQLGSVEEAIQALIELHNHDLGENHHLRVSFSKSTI

Series [3] deals with PTBP3 ΔRRM1 (human), O95758-5.

CUCUCUCUCUCUCUCUCUCUCUCU [[CUCUCU]4]: the negative logarithm of the Kd (pKd) (commonly the Kd on a negative log10 scale, so that one unit is a factor of ten) in series [1] was 7.36; in series [2], 7.46; in series [3], 7.12.

Regarding EMCV IRES, the pKd in series [1] was 8.37; in series [2] it was 8.19; in series [3] it was 8.19.

Consider MTDH exon 7 RNA, for which the pKd was 7.20 in series [1], 7.04 in series [2] and 7.04 in series [3].

For the substance PV IRES, the pKd in series [1] is 7.63; in series [2], 7.36; in series [3], 7.63.

The values are drawn from paper PMC4477659.
